The results in this text go back to paper PMC8448823, “Structural basis of RNA polymerase inhibition by viral and host factors” (Nature Communications, 2021).

Details in all cases: both partners purified
In experiment [1] the target is T1, Rpo1′ subunit of Sulfolobus acidocaldarius RNA polymerase (Sulfolobus acidocaldarius, UniProt P11512 1-880).
T1 construct: Rpo1′, subunit of the Sulfolobus acidocaldarius RNA polymerase (clamp, rim helices, bridge helix); Stood within the whole 13-subunit RNAP; source: part of the RNAP purified from Saci strain MW001
T1 sequence (P11512 whole entry): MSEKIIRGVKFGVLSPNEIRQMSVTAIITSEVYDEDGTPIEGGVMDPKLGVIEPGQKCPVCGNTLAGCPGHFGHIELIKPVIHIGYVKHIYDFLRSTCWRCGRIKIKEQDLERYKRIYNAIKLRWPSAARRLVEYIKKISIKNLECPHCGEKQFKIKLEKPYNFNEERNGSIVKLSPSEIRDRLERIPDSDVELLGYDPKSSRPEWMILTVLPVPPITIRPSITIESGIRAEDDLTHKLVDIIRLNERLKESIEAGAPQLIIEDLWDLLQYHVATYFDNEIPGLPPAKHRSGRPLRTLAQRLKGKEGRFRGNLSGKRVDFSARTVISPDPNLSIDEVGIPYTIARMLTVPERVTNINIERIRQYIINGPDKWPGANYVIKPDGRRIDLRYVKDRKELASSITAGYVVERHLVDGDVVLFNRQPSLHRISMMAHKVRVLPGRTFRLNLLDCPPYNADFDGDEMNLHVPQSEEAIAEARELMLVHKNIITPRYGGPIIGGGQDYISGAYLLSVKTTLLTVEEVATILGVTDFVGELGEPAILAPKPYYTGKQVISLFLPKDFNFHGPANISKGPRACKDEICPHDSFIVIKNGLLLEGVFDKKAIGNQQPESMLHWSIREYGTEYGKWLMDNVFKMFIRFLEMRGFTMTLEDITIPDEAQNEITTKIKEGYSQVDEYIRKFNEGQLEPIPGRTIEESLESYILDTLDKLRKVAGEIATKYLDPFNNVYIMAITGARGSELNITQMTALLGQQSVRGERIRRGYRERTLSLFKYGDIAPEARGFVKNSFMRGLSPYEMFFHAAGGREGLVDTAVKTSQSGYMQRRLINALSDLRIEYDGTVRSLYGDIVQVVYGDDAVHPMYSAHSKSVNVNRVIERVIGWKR
Kind of experiment: cryo-EM structure; apo-RNAP cross-linked with 2 mM BS3 for 5 min at 65 °C; 20 mM Hepes pH 7.0, 200 mM NaCl, 5 mM MgCl2; map at 2.88 Å.

Experiment [2] addresses T2, Rpo2 subunit of Sulfolobus acidocaldarius RNA polymerase (Sulfolobus acidocaldarius, UniProt P11513 1-1126).
T2 construct: Rpo2, subunit of the Sulfolobus acidocaldarius RNA polymerase (protrusion and lobe); Stood within the whole 13-subunit RNAP; source: part of the RNAP purified from Saci strain MW001
The experiment in a line: cryo-EM structure; RNAP incubated and cross-linked (BS3, 65 °C) in presence of a 20 molar fold excess of TFS4; map at 2.61 Å.

Experiment [3] addresses T3, Rpo1″ subunit of Sulfolobus acidocaldarius RNA polymerase (Sulfolobus acidocaldarius, UniProt P11514 1-393).
T3 construct: Rpo1″, subunit of the Sulfolobus acidocaldarius RNA polymerase (upper jaw, trigger loop); Stood within the whole 13-subunit RNAP; source: part of the RNAP purified from Saci strain MW001
Described as above.

The target in experiment [4] is T1, Rpo1′ subunit of Sulfolobus …. Described as above.
Experiment [5] deals with T2, Rpo2 subunit of Sulfolobus …. The experiment in a line: cryo-EM structure; RNAP incubated with a 10-fold excess of RIP for 5 min at 65 °C, then cross-linked with 2 mM BS3; 20 mM Hepes pH 7.0, 200 mM NaCl, 5 mM MgCl2; map at 3.27 Å.
Experiment [6] has as its target T1, Rpo1′ subunit of Sulfolobus …. Described as above.

T2 sequence (P11513 whole entry): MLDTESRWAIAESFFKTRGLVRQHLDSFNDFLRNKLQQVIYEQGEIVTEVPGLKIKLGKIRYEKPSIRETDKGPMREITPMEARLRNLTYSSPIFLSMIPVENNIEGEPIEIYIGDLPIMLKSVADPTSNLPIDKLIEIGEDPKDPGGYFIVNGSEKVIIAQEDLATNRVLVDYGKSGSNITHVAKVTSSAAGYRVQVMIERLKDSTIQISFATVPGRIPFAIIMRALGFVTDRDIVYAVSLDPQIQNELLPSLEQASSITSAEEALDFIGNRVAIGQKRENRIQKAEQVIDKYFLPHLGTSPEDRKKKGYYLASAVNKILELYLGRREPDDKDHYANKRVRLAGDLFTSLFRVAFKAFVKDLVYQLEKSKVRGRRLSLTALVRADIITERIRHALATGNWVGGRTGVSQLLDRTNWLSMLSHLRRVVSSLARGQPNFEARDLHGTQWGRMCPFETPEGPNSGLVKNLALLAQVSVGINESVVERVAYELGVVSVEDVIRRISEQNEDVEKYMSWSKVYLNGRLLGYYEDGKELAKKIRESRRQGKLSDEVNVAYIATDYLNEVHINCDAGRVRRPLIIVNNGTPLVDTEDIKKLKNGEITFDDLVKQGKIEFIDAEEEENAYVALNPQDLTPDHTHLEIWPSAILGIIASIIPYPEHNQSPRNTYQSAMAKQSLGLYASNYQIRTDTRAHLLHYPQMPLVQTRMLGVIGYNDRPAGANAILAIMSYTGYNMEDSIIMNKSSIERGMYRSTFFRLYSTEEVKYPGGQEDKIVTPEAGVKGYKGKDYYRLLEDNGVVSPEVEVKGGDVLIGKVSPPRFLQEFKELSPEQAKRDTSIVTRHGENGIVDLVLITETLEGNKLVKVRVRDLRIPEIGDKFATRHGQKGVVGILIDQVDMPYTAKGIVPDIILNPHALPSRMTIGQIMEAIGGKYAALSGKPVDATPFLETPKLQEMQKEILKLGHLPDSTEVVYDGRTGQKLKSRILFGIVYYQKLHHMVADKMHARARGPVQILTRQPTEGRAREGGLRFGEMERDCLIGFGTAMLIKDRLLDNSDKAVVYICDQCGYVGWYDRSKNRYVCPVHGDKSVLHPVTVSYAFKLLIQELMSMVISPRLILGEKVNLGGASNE
T3 sequence (P11514 whole entry): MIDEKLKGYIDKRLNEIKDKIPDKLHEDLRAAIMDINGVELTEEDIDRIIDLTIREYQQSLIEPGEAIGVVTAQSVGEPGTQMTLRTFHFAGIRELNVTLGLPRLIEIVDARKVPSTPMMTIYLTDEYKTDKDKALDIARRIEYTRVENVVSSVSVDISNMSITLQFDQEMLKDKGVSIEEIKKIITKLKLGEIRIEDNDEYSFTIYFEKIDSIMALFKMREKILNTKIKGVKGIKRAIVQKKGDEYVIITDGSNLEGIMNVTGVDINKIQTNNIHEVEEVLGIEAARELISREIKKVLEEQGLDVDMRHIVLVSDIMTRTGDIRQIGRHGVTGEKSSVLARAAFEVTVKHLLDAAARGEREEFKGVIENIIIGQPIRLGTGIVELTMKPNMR

B1: Rpo8 subunit of Sulfolobus acidocaldarius RNA polymerase (natural protein)
chain: MMQGTCKISSIEKGALKNLYVVKMDCDNDLKIEFDITKELSIFSKDEEVTFIISREKPEYSEKDFCAHGYLFLERQQEDGSFIDEISLYGLIVKILSKNGLINSKLFKMMDHVYYCVKKKA
notes: Rpo8, subunit of the Sulfolobus acidocaldarius RNA polymerase; holds the conserved GGLLM motif; Stood within the whole 13-subunit RNAP; source: part of the RNAP purified from Saci strain MW001
With B1, in experiment [1], the binding result is “binds”.

B2: Sso TFS4 (natural protein)
chain: MRFCPKCGSFLKVKGNKMVCSKCGYSDHDVEKVILKENVAHENDKTIIADGETIEGRVAISLCPRCGSVRAILLNKKKRLYRCMTCNFVYNI
notes: TFS4, paralogue of the transcript cleavage factor TFS; two zinc-ribbon domains ZR^N and ZR^C joined by a linker; expressed without tag; source: E. coli BL21 pLysS, purified (heat step 65 °C, HiTrap Q, Superose 12)
For B2, the binding result in experiment [2], in experiment [3] and in experiment [4] was “binds” throughout.

B3: ATV RIP (RNAP Inhibitory Protein, ORF145) of Acidianus two-tailed virus (natural protein, Acidianus two-tailed virus (ATV))
chain: MKNMLHPQKYETHVLDDLMEFYEGVIGYPEIDLRLAGEEAWLKGVNPELAEAVKKIIKTIRRYLEGSPYDGSEKPIPRYIIAEIFSQIAPEVQLLVNALDTEGKYGFLKHIKKLNLNSLAMLSKNYNENDKLWKELENEGYVYLE
notes: RIP (ORF145) of Acidianus two-tailed virus (ATV); 145 aa printed; residues 10–127 resolved in the RNAP–RIP structure; source: E. coli BL21 pLyS, purified (heat step 60 °C, Ni-column, TEV cleavage, second Ni-column); not shown: 6×His, N-terminal, cleaved
With B3, the binding result in experiment [5] and in experiment [6] was “binds” throughout.
